Starred links: 1 amine or outer side, 2 acyl side, 3 side chain; linkers in the order of their positions; H or OH if unused. Positions of bridges follow the written chain, without caps; N, C: chain ends. TATA = O=C(CC[*:1])N1CN(C(=O)CC[*:2])CN(C(=O)CC[*:3])C1
Columns and labels:
Assay in all cases: enzyme inhibition
factor Xa = biological target: T1, factor Xa (human, UniProt P00742 41-179; P00742 235-488)
T1 chain 1: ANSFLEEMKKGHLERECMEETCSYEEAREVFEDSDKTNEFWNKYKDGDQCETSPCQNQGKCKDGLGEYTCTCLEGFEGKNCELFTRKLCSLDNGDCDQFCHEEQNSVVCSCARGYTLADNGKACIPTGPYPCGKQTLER
T1 chain 2: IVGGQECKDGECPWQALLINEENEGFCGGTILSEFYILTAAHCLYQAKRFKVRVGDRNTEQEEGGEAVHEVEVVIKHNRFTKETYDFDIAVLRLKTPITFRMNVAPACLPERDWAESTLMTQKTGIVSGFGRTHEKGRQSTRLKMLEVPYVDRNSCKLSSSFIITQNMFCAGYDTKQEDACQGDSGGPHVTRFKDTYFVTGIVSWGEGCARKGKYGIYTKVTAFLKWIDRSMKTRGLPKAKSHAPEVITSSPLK

uPA = uPA (human, UniProt P00749 21-431)
factor VIIa = biological target: T2, factor VIIa (human, UniProt P08709 61-466)
T2 chain: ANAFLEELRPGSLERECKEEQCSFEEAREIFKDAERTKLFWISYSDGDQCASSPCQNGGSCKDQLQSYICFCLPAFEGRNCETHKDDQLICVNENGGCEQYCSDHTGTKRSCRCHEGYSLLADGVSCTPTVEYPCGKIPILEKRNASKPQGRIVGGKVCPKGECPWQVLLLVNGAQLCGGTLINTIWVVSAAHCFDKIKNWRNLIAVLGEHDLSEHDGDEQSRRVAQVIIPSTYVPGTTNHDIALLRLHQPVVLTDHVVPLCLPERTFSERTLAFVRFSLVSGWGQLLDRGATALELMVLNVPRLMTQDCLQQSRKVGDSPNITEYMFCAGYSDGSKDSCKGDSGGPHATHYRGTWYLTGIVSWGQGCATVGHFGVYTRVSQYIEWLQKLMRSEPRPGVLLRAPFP

factor XIa = factor XIa (human, UniProt P03951 19-625)
plasmin = biological target: T3, plasmin (human, UniProt P00747 97-810)
T3 chain: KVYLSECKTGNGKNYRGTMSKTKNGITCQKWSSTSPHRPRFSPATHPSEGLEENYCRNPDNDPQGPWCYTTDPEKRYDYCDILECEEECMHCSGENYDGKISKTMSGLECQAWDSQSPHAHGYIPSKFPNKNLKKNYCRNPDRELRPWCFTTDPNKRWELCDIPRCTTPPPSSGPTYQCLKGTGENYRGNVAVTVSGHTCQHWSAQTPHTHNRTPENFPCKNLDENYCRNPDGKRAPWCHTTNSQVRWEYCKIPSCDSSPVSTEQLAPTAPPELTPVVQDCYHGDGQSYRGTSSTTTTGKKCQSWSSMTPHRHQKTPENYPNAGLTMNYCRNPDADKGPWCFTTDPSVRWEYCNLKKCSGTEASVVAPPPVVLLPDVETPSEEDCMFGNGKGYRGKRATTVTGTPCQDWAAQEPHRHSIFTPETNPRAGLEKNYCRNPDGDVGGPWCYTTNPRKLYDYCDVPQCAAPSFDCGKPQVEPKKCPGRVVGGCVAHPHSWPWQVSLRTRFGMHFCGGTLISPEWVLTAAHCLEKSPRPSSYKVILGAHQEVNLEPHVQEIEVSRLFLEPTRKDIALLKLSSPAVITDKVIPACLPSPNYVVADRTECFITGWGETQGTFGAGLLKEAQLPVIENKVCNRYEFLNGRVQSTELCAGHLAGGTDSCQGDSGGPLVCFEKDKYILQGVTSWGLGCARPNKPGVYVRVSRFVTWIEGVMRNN

plasma kallikrein = plasma kallikrein (human, UniProt P03952 20-638)
[1] = biological target: human tissue-plasminogen activator (human, UniProt P00750 36-562)
thrombin = thrombin (human, UniProt P00734 328-622)

Measured: Ki

Chain of human tissue-plasminogen activator (P00750 36-562): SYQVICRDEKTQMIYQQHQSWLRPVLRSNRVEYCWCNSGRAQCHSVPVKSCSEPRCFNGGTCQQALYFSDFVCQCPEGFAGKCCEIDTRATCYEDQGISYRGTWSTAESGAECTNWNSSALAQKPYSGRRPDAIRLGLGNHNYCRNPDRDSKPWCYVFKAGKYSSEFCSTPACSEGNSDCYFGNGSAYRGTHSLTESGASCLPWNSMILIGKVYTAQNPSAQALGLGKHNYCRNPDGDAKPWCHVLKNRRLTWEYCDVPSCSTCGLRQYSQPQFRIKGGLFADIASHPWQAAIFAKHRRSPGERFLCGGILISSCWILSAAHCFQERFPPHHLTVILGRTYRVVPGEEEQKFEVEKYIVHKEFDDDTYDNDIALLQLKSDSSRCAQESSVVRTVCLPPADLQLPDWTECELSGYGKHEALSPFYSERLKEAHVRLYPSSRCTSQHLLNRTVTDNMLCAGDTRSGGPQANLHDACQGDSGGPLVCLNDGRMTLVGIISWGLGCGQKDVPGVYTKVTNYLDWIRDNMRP
Chain of plasma kallikrein (P03952 20-638): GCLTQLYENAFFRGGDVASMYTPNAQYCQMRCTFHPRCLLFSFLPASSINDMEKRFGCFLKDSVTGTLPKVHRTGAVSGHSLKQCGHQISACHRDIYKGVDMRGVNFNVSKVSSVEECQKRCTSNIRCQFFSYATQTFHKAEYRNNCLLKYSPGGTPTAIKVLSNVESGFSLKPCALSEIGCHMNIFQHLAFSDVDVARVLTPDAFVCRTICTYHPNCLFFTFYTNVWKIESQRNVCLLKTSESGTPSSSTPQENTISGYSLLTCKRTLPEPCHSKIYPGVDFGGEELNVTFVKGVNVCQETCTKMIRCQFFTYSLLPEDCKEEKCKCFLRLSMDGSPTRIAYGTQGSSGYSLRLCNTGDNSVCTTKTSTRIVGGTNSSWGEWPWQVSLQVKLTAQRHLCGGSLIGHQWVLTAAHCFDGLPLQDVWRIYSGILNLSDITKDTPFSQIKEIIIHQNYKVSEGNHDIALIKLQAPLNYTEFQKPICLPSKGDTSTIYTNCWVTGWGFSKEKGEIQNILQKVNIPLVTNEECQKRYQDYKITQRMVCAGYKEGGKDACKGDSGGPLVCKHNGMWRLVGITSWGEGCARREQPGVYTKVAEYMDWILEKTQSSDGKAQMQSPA

H-RCFRLPCRQLRCR-NH2 (linker 2-7-12 via TATA) [FXII618]
> 50 µM: factor Xa | uPA | factor VIIa | factor XIa | plasmin | plasma kallikrein | [1] | thrombin

Source: US20180118786A1 (published 2018)
